± gives the standard deviation of the averaged measurements.
System: ATP
Experiment: switch fluorescence ratio, 500 uM ATP over buffer (Cy3 cluster intensity, sum of 5 cycles each) (fold (ratio)); higher = stronger signal-on switching upon ATP binding; sequences stand for … in TCGTCGGCAGCGTCAGATGTGTATAAGAGACAGTTTTTTTTTTTTTTTTTTTTTTTTT…TC
Conditions: aptamer strand: ATP DNA aptamer (quencher-CACCTGGGGGAGTATTGCGGAGGAAGG + anchor), 100 nM annealed; ATP concentration: 500 uM
In short: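 Imaging in selection buffer was followed by imaging after 15 min with 500 uM ATP at 22 °C, for Cy3-labelled switching-strand clusters annealed to 100 nM quencher-labelled ATP aptamer on a modified Illumina MiSeq flow-cell. Five of these buffer/ATP cycles ran, separated by NaOH stripping and re-annealing. The fluorescence ratio per cluster is summed target-cycle over summed buffer-cycle Cy3 intensity, averaged per switch-domain sequence; clusters outside 100-1000 RFU were removed.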
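Note: ATP exposure 15 min at 22 °C before imaging.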

ATAGGGTATA
switch fluorescence ratio: 0.981 ± 0.055

AAAACATGGA
switch fluorescence ratio: 0.9537 ± 0.0037

CGGAACAGCA
switch fluorescence ratio: 1.08 ± 0.051

GTTGGGTAAA
switch fluorescence ratio: 0.983 ± 0.014

TGTGGGGGCT
switch fluorescence ratio: 1 ± 0.026

CTCGGAACTA
switch fluorescence ratio: 1.04 ± 0.03

TTCGAATGTG
switch fluorescence ratio: 1.01 ± 0.028

TTTAAAGCTT
switch fluorescence ratio: 1.01 ± 0.032

GCCCGGGGGA
switch fluorescence ratio: 1.94 ± 1.3

TTTGGAGGGC
switch fluorescence ratio: 1.06 ± 0.065

GGTTTCGTCC
switch fluorescence ratio: 1.02 ± 0.0023

AACCGAACGA
switch fluorescence ratio: 2.09 ± 0.072

GGGTGGTGTA
switch fluorescence ratio: 1.07 ± 0.096

AAGGGGCCGC
switch fluorescence ratio: 0.982 ± 0.026

GATGTTTGCG
switch fluorescence ratio: 0.994 ± 0.034

TCAAAAGTTG
switch fluorescence ratio: 1.04 ± 0.044

ATAAAGAATG
switch fluorescence ratio: 1.01 ± 0.05

AGTAGTAGGA
switch fluorescence ratio: 1.01 ± 0.017

TTTGTGGCAG
switch fluorescence ratio: 0.991 ± 0.039

TTGGGGCAGT
switch fluorescence ratio: 0.997 ± 0.035

CAGTTGGACA
switch fluorescence ratio: 0.967 ± 0.031

TCTGGTTGT
switch fluorescence ratio: 0.992 ± 0.028

ACTTATTTGC
switch fluorescence ratio: 1.16 ± 0.17

ATAGGCGGAA
switch fluorescence ratio: 1.02 ± 0.036

GGGAGTTGAA
switch fluorescence ratio: 0.9747 ± 0.0083

TAGGGGAAAA
switch fluorescence ratio: 1.02 ± 0.019

TTACCGGCGC
switch fluorescence ratio: 1.14 ± 0.18

AAGTTGGTCT
switch fluorescence ratio: 1.02 ± 0.018

AGTGCCGGGA
switch fluorescence ratio: 1.04 ± 0.034

CGATTTAGAG
switch fluorescence ratio: 0.988 ± 0.019

ATGGAGAGGG
switch fluorescence ratio: 0.987 ± 0.037

ATATCGGCGT
switch fluorescence ratio: 1.55 ± 0.82

AATCGGGTAT
switch fluorescence ratio: 0.984 ± 0.027

CACCGGGGTG
switch fluorescence ratio: 0.995 ± 0.13

AAAGGTTAAA
switch fluorescence ratio: 0.99 ± 0.018

TTGCTAAAGC
switch fluorescence ratio: 1.038 ± 0.0054

GATAGGTGCC
switch fluorescence ratio: 1.002 ± 0.0027

CCAAAGTACG
switch fluorescence ratio: 1.25 ± 0.018

ATCGTGTGTC
switch fluorescence ratio: 0.987 ± 0.071

GGGGCAGGGG
switch fluorescence ratio: 1.05 ± 0.062

ATTTTTGATT
switch fluorescence ratio: 0.984 ± 0.018

GCGAGGGGCT
switch fluorescence ratio: 0.9717 ± 0.0031

GCGTTAAGTA
switch fluorescence ratio: 1.005 ± 0.0085

TTAACAGGAA
switch fluorescence ratio: 1.024 ± 0.0095

AGAGGGTTGC
switch fluorescence ratio: 0.978 ± 0.029

GCGGGGGCGT
switch fluorescence ratio: 1 ± 0.03

CTTGGAGTTG
switch fluorescence ratio: 1.02 ± 0.07

CCGATTTTTA
switch fluorescence ratio: 0.977 ± 0.053

GGCTTAGGTG
switch fluorescence ratio: 1.26 ± 0.06

ATTGTCGTGA
switch fluorescence ratio: 0.991 ± 0.037

CCGTTGAGCT
switch fluorescence ratio: 1.112 ± 0.01

TTTTGGTTAT
switch fluorescence ratio: 1.01 ± 0.03

TCTGAACGGG
switch fluorescence ratio: 1.02 ± 0.011

TCCAGGACTA
switch fluorescence ratio: 1.02 ± 0.015

GTTCTTGGGA
switch fluorescence ratio: 1.03 ± 0.077

TCTTAGGCTG
switch fluorescence ratio: 1.01 ± 0.018

GGCTTTGAGT
switch fluorescence ratio: 0.9873 ± 0.0066

ATGCGCACCG
switch fluorescence ratio: 1.05 ± 0.023

TGGGGGTAAC
switch fluorescence ratio: 1.1 ± 0.18

CAGGGCGCCT
switch fluorescence ratio: 1.012 ± 0.002

GCTTGGAAGC
switch fluorescence ratio: 0.9909 ± 0.0089

CATCGTGCTG
switch fluorescence ratio: 0.978 ± 0.052

TTTTTTGTTG
switch fluorescence ratio: 0.987 ± 0.029

GCAGGTATCA
switch fluorescence ratio: 1.018 ± 0.007

CTAGGGTTGT
switch fluorescence ratio: 1.02 ± 0.045

CGAGCTGCAT
switch fluorescence ratio: 1.08 ± 0.011

AATTCTGGAA
switch fluorescence ratio: 0.982 ± 0.011

TTCCATCACA
switch fluorescence ratio: 1.01 ± 0.021

ATAAATTTGC
switch fluorescence ratio: 0.968 ± 0.045

ATATTTTGGC
switch fluorescence ratio: 1.04 ± 0.034

TCGTTAAATT
switch fluorescence ratio: 0.988 ± 0.035

TAGAAAATAA
switch fluorescence ratio: 0.995 ± 0.021

ATAGTTCTAA
switch fluorescence ratio: 0.9939 ± 0.0048

GCCAGCGATC
switch fluorescence ratio: 2.23 ± 0.81

CGGTGTGTGG
switch fluorescence ratio: 0.999 ± 0.032

TTATTTGATT
switch fluorescence ratio: 1.01 ± 0.029

ATCAAGTCTG
switch fluorescence ratio: 0.9898 ± 0.0028

AGATCGAGTT
switch fluorescence ratio: 0.99 ± 0.041

AAATGCTTAG
switch fluorescence ratio: 0.995 ± 0.011

TTCTATGGAA
switch fluorescence ratio: 1.01 ± 0.016

ATTTTTGTTC
switch fluorescence ratio: 1.0252 ± 0.00061

TTTGGAGGAT
switch fluorescence ratio: 0.978 ± 0.029

TTATGGGCGG
switch fluorescence ratio: 1.02 ± 0.047

TGAAGCTTTA
switch fluorescence ratio: 1.06 ± 0.048

ACGAGGGGAA
switch fluorescence ratio: 1.015 ± 0.0057

TCAAAGAGGT
switch fluorescence ratio: 0.98204 ± 0.00058

CCTGTGAGTT
switch fluorescence ratio: 0.986 ± 0.012

GCATTCCGTT
switch fluorescence ratio: 1.02 ± 0.011

TTCCTCCTTC
switch fluorescence ratio: 1.83 ± 0.89

GCGAAGGTCT
switch fluorescence ratio: 1 ± 0.014

TTAAATAGGT
switch fluorescence ratio: 0.9956 ± 0.0088

CCTGGTTGTG
switch fluorescence ratio: 0.992 ± 0.029

ATTGTTTCCT
switch fluorescence ratio: 1.06 ± 0.039

TGTAGATGGC
switch fluorescence ratio: 1.03 ± 0.044

GTTATAATGG
switch fluorescence ratio: 0.9998 ± 0.0087

TGAAAGCACA
switch fluorescence ratio: 1.11 ± 0.06

ATTGGGGAGA
switch fluorescence ratio: 1.04 ± 0.052

CAACCGAGGC
switch fluorescence ratio: 1.18 ± 0.028

GAAGGGATGG
switch fluorescence ratio: 1.08 ± 0.15

GTTTATAATG
switch fluorescence ratio: 0.986 ± 0.02

— the supplement of paper PMC10126150
